# According to US20160185853A1 (UNIVERSITY OF SOUTHERN CALIFORNIA, published 2016):
# B1: MAb159 (murine monoclonal antibody) (antibody, V domains shown)
# VH: QAQLQQPGAELVKPGASVRLSCKASGYTFTSYWMHWVKQRPGQGLEWIGEINPGNGRTNYNEKFKRKATLTVDKSSSTAYMQLNSLTSEDSAVYYCATLYYYDGTYDYWGQGTTLTVSS
# VL: DIVMTQSHKFMSTSVGDRVSVTCKASQNVGTDVAWYQQKPGQSPKALIYWASNRFTGVPDRFTGSGSGTDFTLTINNVQSEDLVDYFCQQYSSSPWTFGGGTKLEIK
# notes: Whole murine monoclonal antibody from a hybridoma, purified on protein G; also called murine MAb159; parental murine antibody
# B2: humanized MAb159 (antibody, V domains shown)
# VH: QAQLVQSGAEVKKPGASVKVSCKASGYTFTSYWMHWVRQAPGQGLEWIGEINPGNGRTNYNEKFKRRVTITVDKSASTAYMELSSLRSEDTAVYYCATLYYYDGTYDYWGQGTTVTVSS
# VL: DIVMTQSPSFLSASVGDRVTITCKASQNVGTDVAWYQQKPGKAPKALIYWASNRFTGVPDRFTGSGSGTDFTLTISSLQSEDVADYFCQQYSSSPWTFGGGTKVEIK
# notes: It carries a human Fc (detected with a human Fc specific antibody)
# B3: ERK1 (enzyme, UniProt P27361 2-379, looked up)
# chain: AAAAAQGGGGGEPRRTEGVGPGVPGEVEMVKGQPFDVGPRYTQLQYIGEGAYGMVSSAYDHVRKTRVAIKKISPFEHQTYCQRTLREIQILLRFRHENVIGIRDILRASTLEAMRDVYIVQDLMETDLYKLLKSQQLSNDHICYFLYQILRGLKYIHSANVLHRDLKPSNLLINTTCDLKICDFGLARIADPEHDHTGFLTEYVATRWYRAPEIMLNSKGYTKSIDIWSVGCILAEMLSNRPIFPGKHYLDQLNHILGILGSPSQEDLNCIINMKARNYLQSLPSKTKVAWAKLFPKSDSKALDLLDRMLTFNPNKRITVEEALAHPYLEQYYDPTDEPVAEEPFTFAMELDDLPKERLKELIFQETARFQPGVLEAP
# notes: Printed only as ERK1/2; also called ERK1/2; Erk1/2
# Assays:
# [1] = molecular target: T1, mouse GRP78 (mouse, UniProt P20029 20-655); test: immunoblot of MEF lysates; band absent after deletion of Grp78
# T1 construct: Denatured protein on an immunoblot; also called GRP78 protein band in mouse embryo fibroblast (MEF) lysates
# [2] = molecular target: T2, human GRP78 (human, UniProt P11021 19-654); test: Scatchard assay
# T2 construct: also called BiP/HSPA5; antigen
# [3] = molecular target: T3, HSP70 (UniProt P0DMV8 2-641); test: Western blot of MCF7 whole cell lysates
# T3 construct: also called GRP78's closest paralogue
# [4] = molecular target: T4, GRP78-His (human GRP78 amino acids 1-650, without KDEL motif, hexahistidine tag on C-terminus) (human, UniProt P11021 19-650); test: competition ELISA on GRP78-His; dilution series of unlabelled antibody against a fixed concentration of biotinylated murine MAb159 [panel A]
# T4 construct: also called GRP78-His polypeptide
# [5] = molecular target: T5, Flag tagged GRP78 (without KDEL) (human, UniProt P11021 19-650, surface biotinylated with Sulfo-NHS-LC-Biotin); test: surface biotinylation, avidin purification, anti-Flag immunoprecipitation, Western blot (293T cells)
# T5 construct: also called surface GRP78 (overexpressed); not shown: Flag tag
binder,measurement,setting,value
B1,binding result,[1],binds
same,Kd,[2],1.7 nM
same,binding result,[3],no binding (tested: 1 µg/ml primary antibody)
B2,binding result,[4],binds
B3,binding result,[5],no binding
